{"source": "paper PMC3905845", "about": "“Intracellular dynamics of archaeal FANCM homologue Hef in response to halted DNA replication” (Nucleic Acids Research, 2013)", "target": "the molecule itself", "experiment": "AUC; sedimentation velocity (0.9, 1 and 1.6 mg/ml) and sedimentation equilibrium (0.6 or 1 mg/ml) at 20°C in buffer C (2M KCl, 10 mM Hepes, pH 7.0), absorbance at 280 nm; SEDFIT and SEDPHAT"}
{"protein": "Haloferax volcanii Hef protein (helicase-associated endonuclease fork-structure DNA), full length with a six-histidine tag (natural protein, UniProt D4GYC2 1-858, looked up, Hef helicase/endonuclease of the XPF/MUS81/FANCM family, Haloferax volcanii; full-length protein; predicted monomeric molecular mass 93.95 kDa; hef amplified from plasmid pTA1097 and cloned into pTA963 (PciI-EcoRI); also called HvoHef; Hef holoprotein; source: H. volcanii (native host, strain lacking hef, tryptophan-induced), purified (Ni-NTA agarose, S-200 gel filtration)) MSASEDVAYVDHPLLAPSFIERRLYQIRLAGTARDGHTLVCLPTGLGKTTVSLLVTAQRLHDVGGKSLFLAPTKPLVQQHADFYREALTVPDDEIVVFTGDVRPDDRAELWQEAQIVIATPQVIENDLIGNRISLRDVTHLTFDECHRASGDYAYVYIAERYHAAAENPLVTGMSASPGGDEEAILEVCENLGIVDVEVMTEEDADVSEYTHDTDVEWNRIQLPDEILEIRDALNEVITDRLEKLKQLGVTKSTKPDISQKKLNRMRAELQRLMNADKSEGYKGMSTHAEVMKLRRAVELVETQSVESVRRYFERQRNAARSSGASKASQRLVAEPKVREAMRKAESFDGLHPKFRKTRILLAETLGIQNGERVIVFTESRDTAEALTEFLSESFSVRRFVGQGDREGSDGMTQNEQQETLDKFRNGEFEVLVSTSVAEEGLDVPEVDLVLFFEPVPTAIRSIQRKGRTGRQADGRVVVLLAEDTRDEAYFWISRRREKTMQNELRDLKGAADDLEAELDPSQRDLSAFAGDDASSAGSAGSSTRNEGVDVASEGDANGASATASSASNGRTATAAATDSDGQSGLADFGPSDEALARADDGDDSHGEDADPADSGDDPASDAEGDEVDDSATVAAAGTDDEDTVEIVVDQRELDSNIARTLSKREDLTTRLETLAVGDYVLSDRVAVERKSVSDFLDTLTGGDRSIFEQIADLTRHYARPLLVIEGRGLYEERNIHPGAIRGALSSVAVDFNVSVLFTEDEDDTAELLATIATREQTDRERTVSVHGGKSAKTLDEQQEYVVSAIADIGPVTARTLLEAFGSVEAVMTANEEDLKEVRGVGQVTAERIREVVGSEYR", "values": [{"measurement": "stoichiometry N", "value": 2}]}
